Data as given in patent publication US20180353627A1, “RADIOLABELED DISINTEGRINS AS BRACHYTHERAPY AGENTS” (UNIVERSITY OF SOUTHERN CALIFORNIA, priority 2015, published 2018).
“Also recorded” adds a separate entry of the source.

Experiments:
[1] = Hemorrhage after brain injection in healthy, tumor-free rats; assay type: in vivo; conditions: no difference to PBS-injected brains
Description: (§1) All previous work was done with CN, the precursor of VCN. Applicants previously determined whether CN induces hemorrhage in healthy, tumor-free rats.

GBM = assay: Survival study, intratumoral delivery via Alzet pump in GBM-bearing animals; assay type: in vivo
[2] = Immune response after intracranial injection; assay type: in vivo, rodents
Description: as §1

C6 rat GBM cells = assay: Gamma camera biodistribution after intracranial injection, C6 rat GBM; assay type: in vivo, rats; conditions: given intracranially as ^131I-CN
Experimental: A Gamma camera was used to determine biodistribution of ^131I-CN in rats after intracranial injection of C6 rat GBM cells, and tumors allowed to grow for 7 days. Two tumor-free rats were also administered ^131I-CN intracranially. Whole-body distribution of radioactivity was imaged at 0 and 24 hours after injection of ^131I-CN.
CN is localized to the brain in all animals at 0 hours. […] This retention was attributable to CN's specific binding to integrin αvβ3, which has been shown previously by us and others to be overexpressed in glioma cells, but not in normal brain tissue. Thus, CN delivered intratumorally binds to the expected integrins in GBM in vivo and accumulates specifically at the site of the tumor. Based on structural and functional similarities between VCN and CN, we anticipate identical findings with VCN for GBM localization.

U87 GBM cells = assay: Intracranial U87 GBM tumor model, Alzet pump delivery to the brain; assay type: in vivo; conditions: 40 μg daily over 2 weeks via Alzet pump, U87 GBM in nude mice
Description: Finally, in an intracranial tumor model, U87 GBM cells were stereotactically implanted into nude mice. […] After 2 weeks the mice were euthanized and their brains removed. The average tumor size of animals treated with PBS was several times larger than animals treated with VCN.

[3] = Toxicology study, single i.v. escalating doses in rats; assay type: in vivo; conditions: single i.v. 3 mg/kg to 75 mg/kg, 14 days
Experimental: Rats were evaluated for signs of physical toxicity or stress and sacrificed after 14 days.

α5β1 = α5β1 (Homo sapiens, UniProt P05556+P08648); assay: Fluorescence polarization binding of FITC-labeled disintegrins to soluble integrin α5β1; conditions: VCN with incorporated echistatin sequence
Chain of α5β1 (P08648 42-894 limits assumed): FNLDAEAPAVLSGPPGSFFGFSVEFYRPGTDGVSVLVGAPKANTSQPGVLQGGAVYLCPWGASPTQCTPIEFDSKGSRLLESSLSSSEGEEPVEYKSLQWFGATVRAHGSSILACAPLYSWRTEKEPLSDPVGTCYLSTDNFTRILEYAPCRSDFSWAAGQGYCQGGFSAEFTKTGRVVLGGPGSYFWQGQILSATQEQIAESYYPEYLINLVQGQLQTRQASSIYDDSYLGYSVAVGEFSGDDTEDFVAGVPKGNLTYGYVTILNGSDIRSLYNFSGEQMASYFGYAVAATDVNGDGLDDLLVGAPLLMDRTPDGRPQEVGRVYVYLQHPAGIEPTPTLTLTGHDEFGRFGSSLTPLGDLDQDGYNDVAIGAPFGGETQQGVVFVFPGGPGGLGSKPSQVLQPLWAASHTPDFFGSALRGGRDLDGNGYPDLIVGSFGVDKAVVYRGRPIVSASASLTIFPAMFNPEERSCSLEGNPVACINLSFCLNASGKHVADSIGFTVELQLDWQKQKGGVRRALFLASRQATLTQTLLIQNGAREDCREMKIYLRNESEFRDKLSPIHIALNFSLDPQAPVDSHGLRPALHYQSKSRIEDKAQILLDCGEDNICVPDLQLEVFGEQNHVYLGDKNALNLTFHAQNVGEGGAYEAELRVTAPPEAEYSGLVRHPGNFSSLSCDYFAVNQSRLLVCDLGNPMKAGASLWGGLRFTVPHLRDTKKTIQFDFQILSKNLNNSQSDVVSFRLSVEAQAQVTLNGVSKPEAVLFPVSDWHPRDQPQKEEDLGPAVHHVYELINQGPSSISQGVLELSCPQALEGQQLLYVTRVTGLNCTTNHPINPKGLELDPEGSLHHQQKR
Chain of α5β1 (P08648 895-995 partner limits assumed): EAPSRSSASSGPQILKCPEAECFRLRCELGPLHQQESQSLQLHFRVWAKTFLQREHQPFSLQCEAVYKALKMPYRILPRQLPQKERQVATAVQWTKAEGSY
Chain of α5β1 (P05556 21-728 limits assumed): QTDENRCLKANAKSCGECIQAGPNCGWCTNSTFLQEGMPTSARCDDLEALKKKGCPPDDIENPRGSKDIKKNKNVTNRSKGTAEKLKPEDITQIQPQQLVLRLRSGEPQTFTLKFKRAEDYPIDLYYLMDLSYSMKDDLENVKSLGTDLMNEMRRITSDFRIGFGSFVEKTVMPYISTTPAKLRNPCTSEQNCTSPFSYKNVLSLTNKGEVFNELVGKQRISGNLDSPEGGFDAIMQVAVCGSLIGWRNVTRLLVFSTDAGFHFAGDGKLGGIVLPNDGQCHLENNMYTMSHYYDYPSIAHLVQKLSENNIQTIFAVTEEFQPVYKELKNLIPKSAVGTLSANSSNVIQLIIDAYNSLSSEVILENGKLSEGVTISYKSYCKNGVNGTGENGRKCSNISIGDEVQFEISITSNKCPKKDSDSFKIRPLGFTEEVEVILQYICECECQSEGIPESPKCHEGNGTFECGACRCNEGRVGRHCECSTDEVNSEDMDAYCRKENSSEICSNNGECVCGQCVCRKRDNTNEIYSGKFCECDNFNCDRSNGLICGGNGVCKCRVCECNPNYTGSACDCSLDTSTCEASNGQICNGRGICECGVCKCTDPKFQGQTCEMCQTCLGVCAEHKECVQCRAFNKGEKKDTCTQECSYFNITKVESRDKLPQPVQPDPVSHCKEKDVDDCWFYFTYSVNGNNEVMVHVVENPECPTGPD
Description: FIG. 3 depicts amino acid sequences of this disclosure. Mass spectrometry and crystallographic data confirmed that CN (SEQ ID. NO. 1) is a homodimer with the 2 chains oriented in an antiparallel fashion and held together by 2 inter-chain disulfide bonds. […] Recombinant CN is SEQ ID NO. 2. VCN is SEQ ID NO. 3. Echistatin is SEQ ID NO. 4.
Further, ^131I-VCN retained essentially 100% radioiodine during dialysis against phosphate buffered saline, pH 7.4, for 15 days. […] Binding kinetics were calculated from the fluorescence anisotropy data generated by steady state binding of FITC-labeled disintegrins to either purified (αvβ3, αvβ5) or recombinant (α5β1) functional human integrins. The dissociation constants for interactions of either CN or VCN with soluble integrins were determined by Scatchard analysis using a non-linear curve fit.

platelet aggregation = assay: Inhibition of platelet aggregation (bioactivity after radioiodination); assay type: cell-based; conditions: radioiodinated VCN

Row | Substance | hemorrhage [1] | survival (GBM) | immune response ([2]; intracranial 50 μg, tumor-bearing (U87 GBM) or tumor-free rodents, 7 days) | immune response ([2]; intracranial 150 μg, after 7, 14 or 21 days) | radioactivity in the brain at 24 hours (C6 rat GBM cells; tumor-bearing (C6) rats) | radioactivity in the brain at 24 hours (C6 rat GBM cells; tumor-free rats) | tumor growth (tumor size versus PBS) (U87 GBM cells) | adverse effects [3] | behavior, gross and microscopic examination [3] | body weight gain [3] | hematological parameters [3] | improvement of binding affinity to integrin a5b1 (α5β1) | retention of bioactivity after radioiodination, assessed by inhibition of platelet aggregation (platelet aggregation)
1 | contortrostatin [CN] | minimal and localized to the injection needle track | significantly (p<0.008) improved survival | no evidence of an immune response | no evidence of an immune response | the vast majority of radioactivity was still retained | disappeared from the brains of tumor-free rats |  |  |  |  |  |  | 
2 | vicrostatin [VCN] |  |  |  |  |  |  | significant (p<0.001) attenuation of tumor growth | no adverse effects observed | no changes in behavior, or in gross or microscopic examination | gained weight indistinguishable from control | no significant differences in hematological parameters | approximately 13 fold | full retention of bioactivity; also recorded: full retention of biological activity
